Source: patent US20130035289A1 (UNIVERSITE DE LIEGE, published 2013)

Experiments:
[1] = biological target: T1, Recombinant wild type human Plasminogen Activator Inhibitor type 1 (PAI-1) (human, UniProt P05121 24-402); experiment: SPR (BIAcore 1000), PAI-1 immobilized on CM5 chip, 25 C
T1 construct: In the yeast two-hybrid confirmation full-length human PAI-1 was cloned in pGADT7 (GAL4 prey fusion); also called recombinant wt PAI-1; rPAI-1

PAI-1/uPA complex = biological target: T2, PAI-1/uPA complex (human, UniProt P05121 24-402; P00749 21-431, limits assumed); experiment: SPR (BIAcore 1000), 16K hPRL immobilized on CM5 chip, PAI-1 pre-incubated with uPA, 25 C
T2 construct: For SPR formed by incubating PAI-1 (2 uM) and uPA (1.4 uM) for 10 min at 37 C before loading; also called uPA/PAI-1; uPA-PAI-1 complex

[2] = biological target: T3, urokinase-type plasminogen activator (uPA) (UniProt P00749 21-431, limits assumed); experiment: immunoprecipitation with uPA without PAI-1, Western blot for 16K PRL
[3] = biological target: T1, Recombinant wild type human Plasminogen …; experiment: SPR (BIAcore 1000), 16K hPRL immobilized on CM5 chip, 25 C
[4] = biological target: T3, urokinase-type plasminogen activator …; experiment: immunoprecipitation with uPA without PAI-1, Western blot for 14K GH

B1: Recombinant 16K N-terminal human prolactin (16K hPRL) (other, UniProt P01236 29-167, looked up)
chain: LPICPGGAARCQVTLRDLFDRAVVLSHYIHNLSSEMFSEFDKRYTHGRGFITKAINSCHTSSLATPEDKEQAQQMNQKDFLSLIVSILRSWNEPLYHLVTEVRGMQEAPEAILSKAVEIEEQTKRLLEGMELIVSQVHP
notes: domain: 16K N-terminal fragment; also called 16K PRL; 16K prolactin
- Kd [1]: 600 nM
- Kd (PAI-1/uPA complex): 150 nM
- binding result [2]: no binding
- Kd [3]: 580 nM

B2: Recombinant 14K N-terminal human growth hormone (14K hGH) (other)
chain: MFPTIPLSRLFDNAMLRAHRLHQLAFDTYQEFEEAYIPKEQKYSFLQNPQTSLSFSESIPTPSNREETQQKSNLELLRISLLLIQSWLEPVQFLRSVFANSLVYGASDSNVYDLLKDLEEGIQTLMGRLEDGSP
notes: Produced in E. coli as in WO 98/51323; it is tied to the 14-16 kD fragments in general, not to the tested batch; also called 14K GH; r14K GH
- Kd [1]: 1000 nM
- binding result [4]: no binding
